Experiments:
transgenic cotton plants [1] = test: CP4EPSPS ELISA, enzyme level in R0 cotton lines; format: in vivo; settings: relative to pMON20999 expression cassette
Experimental: (§1) Three plasmid constructs are evaluated in transgenic cotton plants (Table 21). The control construct (pMON20999) contains P-FMV/CP4EPSPS_Syn this expression cassette is contained in the commercially available glyphosate tolerant cotton line 1445 (Roundup Ready® cotton, Monsanto Co., St. Louis, Mo.). The plasmid constructs, pMON59313 and pMON59396 containing the CP4EPSPS_AT and CP4EPSPS_ZM polynucleotides, respectively, are assayed for transformation efficiency and CP4EPSPS enzyme levels relative to the commercial glyphosate tolerant expression cassette. About fifty transgenic cotton lines are evaluated for each construct.

CP4EPSPS polynucleotide = test: PCR detection of artificial CP4EPSPS polynucleotides in transgenic plants; set-up: species or system corn; settings: amplicon size obtained with the primer pair specific for the gene; second figure in brackets
Excerpt: A DNA detection method (polymerase chain reaction, PCR) is designed to detect the artificial CP4EPSPS polynucleotides in transgenic plants. The unique sets of DNA primers shown in Table 26 are designed to amplify a specific CP4EPSPS polynucleotide and to provide distinctly sized amplicons. The amplicons differ sufficiently in polynucleotide length among the various CP4EPSPS polynucleotides to make easy separation of the amplicons by standard agarose gel electrophoresis. The presence of more than one of the artificial polynucleotides can be detected in a plant by using a multiplex PCR method.
DNA primer pairs (Table 26) are used to produce an amplicon diagnostic for a specified CP4EPSPS polynucleotide contained in a transgenic plant. These primer pairs include, but are not limited to SEQ ID NO:24 and SEQ ID NO:25 for the CP4EPSPS_AT polynucleotide; SEQ ID NO:26 and SEQ ID NO:27 for the CP4EPSPS_ZM; SEQ ID NO:28 and SEQ ID NO:29 for CP4EPSPS_Nat and SEQ ID NO:30 and SEQ ID NO:31 CP4EPSPS_Syn polynucleotide molecule. In addition to these primer pairs, any primer pair derived from SEQ ID NO:17 or SEQ ID NO:18 that when used in a DNA amplification reaction produces a DNA amplicon diagnostic for the respective CP4EPSPS polynucleotide is an aspect of the present invention. […]

transgenic cotton plants [2] = test: Cotton transformation (transformation efficiency, insert number); format: cell-based; settings: relative to pMON20999
Experimental: as §1

[3] = tested on: transgenic soybean plants; test: CP4EPSPS enzyme level in transgenic soybean plants; format: in vivo
Experimental: Constructs containing the artificial CP4EPSPS polynucleotides, CP4EPSPS_AT and CP4EPSPS_ZM are evaluated in soybean (Table 22). The plasmid constructs all contain the P-FMV promoter to drive expression of the new CP4EPSPS polynucleotides and are compared to the P-FMV/CP4EPSPS_Syn contained in pMON20999. About 25 to 30 transgenic soybean plants are produced for each construct. The transformation efficiency and CP4EPSPS enzyme, levels are measured.

Wheat plants = test: CP4EPSPS enzyme expression in wheat leaves by ELISA; format: in vivo
Excerpt: Wheat plants transformed with the new CP4EPSPS polynucleotides are compared for transformation efficiency and CP4EPSPS enzyme expression determined by ELISA (Table 25). […] The average expression of CP4EPSPS in leaves from wheat plants containing the CP4EPSPS_ZM polynucleotide is about 64% of that found in glyphosate resistant wheat that contains a double cassette construct, pMON30139: P-e35S/1-Hsp70/CP4EPSPS_Nat and P-OsAct1/I-OsAct1/CP4EPSPS_Nat (WO/0022704).

B1: CP4EPSPS_AT: Artificial polynucleotide encoding the CP4EPSPS protein using the Arabidopsis codon usage table (nucleic acid, listed as Agrobacterium tumefaciens)
DNA: ATGCTTCATGGAGCTTCATCTAGGCCAGCTACTGCCAGGAAGTCTAGCGGGCTCAGTGGCACCGTGCGCATCCCTGGCGATAAAAGTATTTCACACAGGAGCTTCATGTTCGGAGGACTTGCTAGTGGAGAGACGAGAATCACTGGTTTGCTTGAGGGCGAAGATGTTATCAACACCGGTAAGGCGATGCAAGCAATGGGTGCCAGAATCCGAAAAGAGGGCGATACGTGGATCATCGACGGTGTTGGTAACGGAGGATTGCTCGCTCCCGAAGCGCCACTTGACTTTGGGAACGCAGCTACGGGGTGCCGTCTTACTATGGGACTGGTAGGCGTGTATGACTTTGACTCTACCTTCATCGGTGACGCGAGCCTCACTAAGAGACCAATGGGACGAGTGCTGAATCCCCTGAGGGAGATGGGTGTCCAGGTGAAATCTGAGGATGGTGATCGTCTTCCGGTTACTCTGCGAGGCCCCAAGACCCCCACGCCAATCACGTACAGGGTTCCGATGGCGTCAGCACAGGTCAAGTCAGCGGTACTCCTGGCGGGCCTCAACACACCTGGAATCACAACCGTGATTGAACCCATCATGACTAGAGACCACACGGAGAAGATGTTGCAGGGTTTCGGCGCTAATCTAACGGTCGAAACCGACGCCGACGGCGTGAGGACAATCCGCTTGGAGGGCAGAGGTAAACTGACTGGCCAAGTCATCGATGTGCCTGGAGATCCCTCGTCCACAGCGTTTCCCCTCGTAGCTGCGTTGCTCGTCCCTGGATCTGATGTGACGATCCTGAATGTCCTCATGAATCCAACTAGAACCGGCCTCATCCTCACATTGCAGGAGATGGGTGCTGACATCGAGGTTATCAATCCTAGGTTGGCAGGTGGAGAGGATGTGGCCGATCTGCGCGTGCGTTCTAGTACACTCAAAGGCGTGACCGTCCCTGAGGATCGCGCTCCATCCATGATCGACGAGTACCCCATTCTCGCCGTTGCTGCTGCGTTTGCCGAGGGCGCAACTGTAATGAACGGCCTTGAGGAGTTGAGGGTTAAGGAGAGTGACAGGCTGTCCGCGGTGGCGAATGGCCTGAAGCTAAACGGCGTGGACTGCGACGAAGGTGAAACGTCCCTTGTAGTCCGTGGTCGCCCAGACGGGAAGGGGTTGGGGAATGCTTCGGGAGCTGCTGTGGCGACGCACCTTGATCATAGAATCGCCATGTCATTTCTGGTGATGGGACTTGTCTCCGAGAATCCGGTGACCGTTGACGATGCTACCATGATCGCCACCTCCTTTCCTGAGTTCATGGACCTCATGGCAGGCTTGGGGGCCAAGATCGAGCTGTCTGATACTAAGGCCGCTTGA
Transgenic cotton plants [1]
  expression level of the CP4EPSPS enzyme (in words): increase in expression level
CP4EPSPS polynucleotide
  PCR product (bps): 938 (940) bps
Transgenic cotton plants [2]
  percentage of plants with a single insert: higher percentage of plants with a single insert

B2: CP4EPSPS_ZM: Artificial polynucleotide encoding the CP4EPSPS protein using the Zea mays codon usage table (nucleic acid, listed as Agrobacterium tumefaciens)
DNA: ATGCTACACGGTGCAAGCAGCCGGCCGGCAACCGCTCGCAAATCTTCCGGCCTTTCGGGAACGGTCAGGATTCCGGGCGATAAGTCCATATCCCACCGGTCGTTCATGTTCGGCGGTCTTGCCAGCGGTGAGACGCGCATCACGGGCCTGCTTGAAGGTGAGGACGTGATCAATACCGGGAAGGCCATGCAGGCTATGGGAGCGCGTATCCGCAAGGAAGGTGACACATGGATCATTGACGGCGTTGGGAATGGCGGTCTGCTCGCCCCTGAGGCCCCTCTCGACTTCGGCAATGCGGCGACGGGCTGCAGGCTCACTATGGGACTGGTCGGGGTGTACGACTTCGATAGCACGTTCATCGGAGACGCCTCGCTCACAAAGCGCCCAATGGGCCGCGTTCTGAACCCGTTGCGCGAGATGGGCGTACAGGTCAAATCCGAGGATGGTGACCGTTTGCCCGTTACGCTGCGCGGGCCGAAGACGCCTACCCCGATTACCTACCGCGTGCCAATGGCATCCGCCCAGGTCAAGTCAGCCGTGCTCCTCGCCGGACTGAACACTCCGGGCATCACCACGGTGATCGAGCCCATCATGACCAGGGATCATACCGAAAAGATGCTTCAGGGGTTTGGCGCCAACCTGACGGTCGAGACGGACGCTGACGGCGTCAGGACCATCCGCCTTGAGGGCAGGGGTAAACTGACTGGCCAAGTCATCGATGTTCCGGGAGACCCGTCGTCCACGGCCTTCCCGTTGGTTGCGGCGCTGCTCGTGCCGGGGAGTGACGTGACCATCCTGAACGTCCTCATGAACCCGACCAGGACCGGCCTGATCCTCACGCTTCAGGAGATGGGAGCCGACATCGAGGTGATCAACCCGCGCCTGGCAGGCGGTGAAGACGTTGCGGATCTGCGCGTGCGCTCCTCTACCCTGAAGGGCGTGACGGTCCCGGAAGATCGCGCGCCGTCCATGATAGACGAGTATCCTATTCTGGCCGTCGCCGCTGCGTTCGCCGAAGGGGCCACGGTCATGAACGGTCTTGAGGAACTCCGCGTGAAGGAATCGGATCGCCTGTCGGCGGTGGCCAATGGCCTGAAGCTCAACGGTGTTGACTGCGACGAGGGTGAGACCTCACTCGTGGTCCGTGGCCGGCCTGATGGCAAGGGCCTCGGCAACGCCAGTGGAGCGGCCGTCGCCACGCACCTCGATCATCGCATCGCGATGTCCTTCTTGGTGATGGGTCTCGTCTCAGAGAACCCGGTGACCGTCGATGACGCCACGATGATAGCGACGAGCTTCCCAGAGTTCATGGATCTGATGGCGGGCCTCGGGGCCAAGATCGAACTGTCTGACACGAAGGCCGCTTGA
[3]
  expression level of CP4EPSPS protein (in words): surprisingly high expression level
CP4EPSPS polynucleotide
  PCR product (bps): 595 (600) bps
Wheat plants; wheat
  CP4EPSPS enzyme expression relative to CP4EPSPS_AT: at least seven times higher
Wheat plants; wheat leaves, relative to pMON30139 double cassette wheat, ELISA
  CP4 Exp. (%) CP4EPSPS expression: about 64%

Reference: patent US8466270B2, “Methods for using artificial polynucleotides and compositions thereof to reduce transgene silencing” (Monsanto Technology LLC, priority 2002, dated 2013)
